Assay [1] deals with T1, human IL-4 (human, UniProt P05112 25-153, biotinylated in the RBA and on the Biacore chip).
T1 sequence (looked up): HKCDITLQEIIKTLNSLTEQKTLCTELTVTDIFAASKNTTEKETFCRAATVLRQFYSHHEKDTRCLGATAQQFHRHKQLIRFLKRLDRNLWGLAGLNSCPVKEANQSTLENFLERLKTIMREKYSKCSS
As to the kind of experiment: DOM9 RBA (IL-4 RBA), binder titrated.

The target of assay [2] is T2, human IL-13 (human, UniProt P35225 35-146, limits assumed, biotinylated on the Biacore chip).
T2 construct: also called interleukin-13; biotinylated IL-13
T2 sequence (P35225 35-146 limits assumed): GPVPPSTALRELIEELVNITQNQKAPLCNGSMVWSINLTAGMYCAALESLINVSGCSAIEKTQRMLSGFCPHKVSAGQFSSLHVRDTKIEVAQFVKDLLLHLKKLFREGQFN
The experiment in a line: Dom10 RBA (text: IL-13 sandwich ELISA), binder titrated.

Assay [3] has as its target T1, human IL-4. The experiment in a line: cell-based or functional assay.
The target of assay [4] is variant IL-13 (R130Q) (human), P35225. The experiment in a line: cell-based or functional assay.
Sequence of variant IL-13 (R130Q) (human), P35225 (P35225 35-146, stated change not applied): as the sequence (P35225 35-146 limits assumed) above
Assay [5] addresses T2, human IL-13. The experiment in a line: IL-13 sandwich ELISA, binder titrated; printed as potency. Here is the method: A MAXISORP™ plate (high protein binding ELISA plate, Nunc, Denmark) was coated overnight with 2.5 μg/ml coating antibody (Module Set, Bender MedSystems, Vienna, Austria), then washed once with 0.05% (v/v) Tween 20 in PBS before blocking with 0.5% (w/v) BSA 0.05% (v/v) Tween 20 in PBS. […] The plate was then incubated with TMB substrate (KPL, Gaithersburg, USA), and the reaction was stopped by the addition of HCl and the absorbance read at 450 nm.

Assay [6] addresses T1, human IL-4. The experiment in a line: IL-4 RBA (ELISA), binder titrated; printed as potency. The source says:
The wells were washed three times with 0.1% (v/v) Tween 20 in PBS, followed by three washes with PBS, before blocking with 2% (w/v) BSA in PBS. […] The reaction was stopped by the addition of HCl and the absorbance read at 450 nm.

Where a chain is given by its changes, count along the chain named.

B1: DOM10-215 TVAAPS-DOM9-155-78 (bispecific antibody, from a related filing, part only)
chain: DIQMTQSPSSLSASVGDRVTITCRASQNIFADLNWYQQKPGKAPKLLIYMGSRLQSGVPSRFSGSGSGTDFTLTISSLQPEDFATYYCQQDYKFPLTFGQGTKVEIKRTVAAPSDIQMTQSPSSLSASVGDRVTITCRASRHIGDWLHWYQQKPGKAPKLLIAWASTLDSGVPSRFSGSGSGTDFTLTISSLQPEDFATYYCLQEGWGPPTFGQGTKVEIKR
Take B1: the IC50 with human IL-4 [1] came to 6.65 nM. In addition, the EC50 with human IL-13 [2] was found to be 10.8 nM.

B2: DOM10-208-TVAAPS-DOM9-155-78 (bispecific antibody, from a related filing, part only)
chain: DIQMTQSPSSLSASVGDRVTITCRASSPITDGLAWYQQKPGKAPKLLIDTGSRLQSGVPSRFSGSGSGTDFTLTISSLQPEDFATYYCRQGAMGSYTFGQGTKVEIKRTVAAPSDIQMTQSPSSLSASVGDRVTITCRASRHIGDWLHWYQQKPGKAPKLLIAWASTLDSGVPSRFSGSGSGTDFTLTISSLQPEDFATYYCLQEGWGPPTFGQGTKVEIKR
Take B2: the IC50 with human IL-4 [1] is 8.18 nM. The EC50 with human IL-13 [2] came to 4240 nM.

B3: DOM10-224 TVAAPS-DOM9-155-78 (bispecific antibody, from a related filing, part only)
chain: B2 chain with S27P, P28N, T30A, D31V, G32D, D49R, T50G, G51V
With B3, the IC50 with human IL-4 [1] is 12.5 nM. That is a double-digit nanomolar value.

B4: DOM9-112-22 (other)
VH: EVQLLESWGGLVQPGGSLRLSCAASGFTFRNYGMAWVRQAPGKGLEWISWIDASGTETYYADPVKGRFTISRDNSKNTLYLQMNSLRAEDTAVYYCAKSLGRFDYWGQGTLVTVSS
As to B4, the “average inhibition of HDM induced PBMC proliferation at 100 nM dAb” value with human IL-4 [3] amounted to 23%.

B5: DOM10-176-535 (protein)
VL: DIQMTQSPSSLSASVGDRVTITCRASQWIGPYLNWYQQKPGKAPKPLIYMGYWAPSGVPSRFSGSGSGTDFTLTISSLQPEDFATYYCQQDLYPPFTFGQGTKVEIKR
Regarding B5, in assay [4], the TF-1 proliferation IC50, variant IL-13 amounted to 7.8 nM.

B6: IgG:9-44-502×10-176-535 (bispecific antibody, V domains shown, not shown: a dimerising Fc or GST)
V domain 1: DIQMTQSPSSLSASVGDRVTITCRASQNINFWLRWYQQKPGKAPTLLIYDASRSQSGVPSRFSGSGSGTDFTLTISSLQPEDFATYYCQQDLMPPYTFGQGTKVEIKR
V domain 2: B5 VL
notes: IgG-like format from vector pDOM30 (heavy and light chain cassettes); also called dual specific IgG-like format
As for B6, the results for the IC50 with human IL-13 [5] and in the assay with human IL-4 [6] were 1 nM and 13 nM, respectively.

B7: DOM9-44-502 (other)
VL: B6 V domain 1
Turning to B7, the “average inhibition of HDM induced PBMC proliferation at 100 nM dAb” value with human IL-4 [3] was found to be 38%.

B8: DOM10-53-316 (protein)
VH: GVQLLESGGGLVQPGGSLRLSCAASGFIFAWYDMGWARQAPGKGLEWVSSIDWHGEVTYYADSVKGRFTISRDNSKNTLYLQMNSLRAEDTAVYYCATAEDEPGYDYWGQGTLVTVSS
In assay [4], B8 came in with a TF-1 proliferation IC50, variant IL-13 of 0.52 nM.

B9: DOM10-213 TVAAPS-DOM9-155-78 (bispecific antibody, from a related filing, part only)
chain: DIQMTQSPSSLSASVGDRVTITCRASQAIPWGLNWYQQKPGKAPKLLIYDVSSLQSGVPSRFSGSGSGTDFTLTISSLQPEDFATYYCQQDIHIPMTFGQGTKVEIKRTVAAPSDIQMTQSPSSLSASVGDRVTITCRASRHIGDWLHWYQQKPGKAPKLLIAWASTLDSGVPSRFSGSGSGTDFTLTISSLQPEDFATYYCLQEGWGPPTFGQGTKVEIKR
Consider B9, for which, in the assay with human IL-4 [1], the IC50 stood at 6.91 nM. The same molecule had an EC50 in the assay with human IL-13 [2] of 62 nM.

The record behind these values is patent US20110159003A1 (DOMANTIS, published 2011).
